Assay results as given in patent US20230296611A1 (INNATE PHARMA, published 2023).

Assays:
human MICA*001 = target: T1, human MICA*001 (human, UniProt Q29983 24-297); experiment: IHC with hybridoma supernatant on FFPE C1R MICA*001 cell pellet, Ventana, CC1 or CC2
T1 construct: C1R-neo cells transfected with human MICA*001, formalin fixed and paraffin embedded (or live cells for flow cytometry); also called C1R MICA*001 cells
T1 sequence: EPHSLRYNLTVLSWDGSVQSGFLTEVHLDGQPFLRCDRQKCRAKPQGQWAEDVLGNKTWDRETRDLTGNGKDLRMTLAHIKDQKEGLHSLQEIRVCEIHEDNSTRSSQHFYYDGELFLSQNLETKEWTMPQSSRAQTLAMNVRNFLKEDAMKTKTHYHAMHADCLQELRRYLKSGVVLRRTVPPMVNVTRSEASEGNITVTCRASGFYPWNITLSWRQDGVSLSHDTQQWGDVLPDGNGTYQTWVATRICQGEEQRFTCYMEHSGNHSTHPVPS
Experimental: (§1) In parallel to the phenotyping by flow cytometry, the cell lines were fixed in formalin and embedded in paraffin. Briefly, 20×10⁶ to 40×10⁶ cells were fixed for 1 hour with formalin 4%. The cells were washed twice in PBS, and there were resuspended in Histogel. The cell pellets were dehydrated and embedded in paraffin. For each cell line, several FFPE cell pellets were made A mix of cells (C1R MICA*008 (15.10⁶ cells) and C1R MICB (15.10⁶ cells)) was also were embedded in paraffin. Sectioning of FFPE cell pellets was performed and MICA/B staining done by IHC. Briefly, 5 μm-thick sections were incubated dewaxed, submitted to an antigen retrieval step and incubated with immune or non-immune sera, hybridoma supernatants, chain combinations Abs or purified and commercial Abs followed by a signal amplification step. Enzymatic revelation was finally performed using 3, 3′-diaminobenzidine (DAB). For the IHC stainings with the mouse sera, staining interpretation was done by attributing a percentage of stained cells in the pellet section as well as an intensity score using the following criterion: “−”: negative staining; “+”: weak positive staining; “++”: intermediate IHC signal in intensity and “+++”: strong positive staining. […]

human MICA*008 = target: T2, human MICA*008 (human, UniProt Q29983 24-297); experiment: IHC with hybridoma supernatant on FFPE C1R MICA*008 cell pellet, Ventana, CC1 or CC2
T2 construct: C1R-neo cells transfected with human MICA*008, formalin fixed and paraffin embedded (or live cells for flow cytometry); transmembrane and cytoplasmic parts are not in the entry; also called C1R MICA*008 cells
T2 chain: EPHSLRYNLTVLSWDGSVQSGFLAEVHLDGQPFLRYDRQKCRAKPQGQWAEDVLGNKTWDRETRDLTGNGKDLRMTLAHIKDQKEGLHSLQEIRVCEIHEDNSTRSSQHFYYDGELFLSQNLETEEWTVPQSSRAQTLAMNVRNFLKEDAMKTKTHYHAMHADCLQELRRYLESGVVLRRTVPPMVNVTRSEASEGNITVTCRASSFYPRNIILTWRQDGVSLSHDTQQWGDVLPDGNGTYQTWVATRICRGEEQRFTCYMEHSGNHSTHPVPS
Experimental: as §1

B1: antibody 12C9 (antibody, V domains shown)
VH: EIQLQQSGPELEKPGASVKISCKASGYAFTGYYMNWMKQRNGKSLDWIGTINPYYGSSTYNQKFKGKATLTVDESSSTAYMQLTSLTSEDSAVYYCARVDGDHGYFDYWGRGTTLTVSS
VL: DVVMTQTPLSLPVSLGDQASISCRSSQSLVHSNGNTYLHWYLQKPGQSPKLLIYKVSTRFSGVPDRFSGSGSGTDFTLKISRVEAEDLGVYFCSQSTHVPFTFGSGTKLEIK
notes: Produced as a mouse antibody with mouse gamma1 chain (mIgG1 isotype)
B1: binds (human MICA*001); binds (human MICA*008).
